Results published in PMC12691643.

B1: Shp2 (Ptpn11), endogenous in murine DC2.4 cells (natural protein)
chain: MTSRRWFHPNITGVEAENLLLTRGVDGSFLARPSKSNPGDFTLSVRRNGAVTHIKIQNTGDYYDLYGGEKFATLAELVQYYMEHHGQLKEKNGDVIELKYPLNCADPTSERWFHGHLSGKEAEKLLTEKGKHGSFLVRESQSHPGDFVLSVRTGDDKGESNDGKSKVTHVMIRCQELKYDVGGGERFDSLTDLVEHYKKNPMVETLGTVLQLKQPLNTTRINAAEIESRVRELSKLAETTDKVKQGFWEEFETLQQQECKLLYSRKEGQRQENKNKNRYKNILPFDHTRVVLHDGDPNEPVSDYINANIIMPEFETKCNNSKPKKSYIATQGCLQNTVNDFWRMVFQENSRVIVMTTKEVERGKSKCVKYWPDEYALKEYGVMRVRNVKESAAHDYTLRELKLSKVGQGNTERTVWQYHFRTWPDHGVPSDPGGVLDFLEEVHHKQESIVDAGPVVVHCSAGIGRTGTFIVIDILIDIIREKGVDCDIDVPKTIQMVRSQRSGMVQTEAQYRFIYMAVQHYIETLQRRIEEEQKSKRKGHEYTNIKYSLVDQTSGDQSPLPPCTPTPPCAEMREDSARVYENVGLMQQQRSFR
B2: Git2, endogenous in murine DC2.4 cells (natural protein)
chain: MSKRLRSSDVCADCNGPDPSWASVNRGTFICDECCSVHRSLGRHISQVRHLKHTAWPPTLLQMVETLYNNGANSIWEHSLLDPASIMSGRRKANPQDKVHPNKAEFIRAKYQMLAFVHRLPCREDDSVTAKDLSKQLHSSVRTGNLETCLRLLSLGAQANFFHPEKGSTPLHVASKAGQILQAELLAVYGADPGTQDSSGKTPVDYARQGGHHELAERLIEIQYELTDRLAFYLCGRKPDHKSGQHFLIPQRADSLDLSELAKAAKKKLQSLSNHLFEELAMDVYDEVDRRETDAVWLATQNHSTLVTETTVVPFLPVNPEYSSTRNQGRQKLARFNAHEFATLVIDILSDAKRRQQGSPLSRSKDNVELILRTVSTQHSTESQDNDQPDYDSVASDEDTDVETRASKANRQKLQTLQSENSSLRRQATASACQVQTGSDHKDTASHSSLKRRPSARGSRPMSMYETGSGQKPYLPMGEASHPEESRTRLQPFPTHIGRSALVTSSSSLPSFPSTLSWSRDESARRASRLEKQNSTPESDYDNTACDPEPDDTGSTRKGRQRSMLWQGDGLLPDTAEPHSVPSPTLPSTEDVIRKTEQITKNIQELLRAAQENKHDSYIPCSERIHVAVTEMAALFPKKPKSDTVRTSLRLLTSSAYRLQSECRKALPGDSSLPTDVQLVTQQVIQCAYDIAKAAKQLVTITTKENSS

What was measured:
Assay in all cases: affinity purification with mass spectrometry; HA-tagged TgWIP variants pulled down by the HA tag from lysates of DC2.4 cells infected 4 h at MOI 7; host partners by mass spectrometry; values are negative fold changes in peptide counts of the mutant immunoprecipitations relative to TgWIP^WT
[1] = target: TgWIP^(PRR3 mut), HA-tagged (Toxoplasma gondii)
[2] = target: TgWIP^Y150A/Y199A, HA-tagged (Toxoplasma gondii)
[3] = target: TgWIP^(WIRS mut), HA-tagged (Toxoplasma gondii)
[4] = target: TgWIP^(PRR2 mut), HA-tagged (Toxoplasma gondii)

| Molecule | negative fold change in peptide counts relative to TgWIP^WT [1] [fold] | negative fold change in peptide counts relative to TgWIP^WT [2] [fold] | negative fold change in peptide counts relative to TgWIP^WT [3] [fold] | negative fold change in peptide counts relative to TgWIP^WT [4] [fold] |
| --- | --- | --- | --- | --- |
| Cyfip2, endogenous in murine DC2.4 cells (from UniProt Q5SQX6 1-1253) (natural protein) | 5 | 2 | 2 | 3 |
| Abi1, endogenous in murine DC2.4 cells (from UniProt Q8CBW3 1-481) (natural protein) | 6 | 2 | 4 | 4 |
| Shp1 (Ptpn6), endogenous in murine DC2.4 cells (from UniProt P29351 1-595) (natural protein) | 3 | 32 | 2 | 3 |
| Grb2, endogenous in murine DC2.4 cells (from UniProt Q60631 1-217) (natural protein) | 3 | 4 | 2 | 6 |
| Wasf2 (Wave2), endogenous in murine DC2.4 cells (from UniProt Q8BH43 1-497) (natural protein) | 15 | 2 | 3 | 3 |
| B1 | – | 39 | – | 3 |
| B2 | – | 3 | 2 | 2 |
